The target of assay [1] is human FcγRIII (CD16), CD16a (F158), on CD16-transfected Jurkat cells (human) (UniProt P08637). Description: CD16 bridging assay, purified.
The target is the same in assay [2]. In words: summary of Table 5 assays.

Some results are limits rather than exact numbers.

Sequence of human FcγRIII (CD16), CD16a (F158), on CD16-transfected Jurkat cells (human) (P08637 17-254): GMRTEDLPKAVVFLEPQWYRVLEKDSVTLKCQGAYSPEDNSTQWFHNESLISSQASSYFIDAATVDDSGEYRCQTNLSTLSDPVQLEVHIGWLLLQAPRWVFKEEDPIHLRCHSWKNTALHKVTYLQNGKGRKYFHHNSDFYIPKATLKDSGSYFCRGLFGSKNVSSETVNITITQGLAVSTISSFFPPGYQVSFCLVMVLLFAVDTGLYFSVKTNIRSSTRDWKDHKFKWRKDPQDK

As for chCB6-huIgG1 Y296S (antibody), the fold decrease in binding vs WT in assay [1] is 20 fold; in assay [2] it was greater than 10 fold.
